Results as given in the nanobody polyreactivity screen of Harvey et al. (2022).

Experiment: yeast display, Sf9 membrane polyspecificity reagent, FACS + sequencing; frameworks hold sequencing errors
In short: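 Nanobodies came from a synthetic yeast display library in Saccharomyces cerevisiae BJ5465, induced with galactose for 36–48 hours and stained for 1 hour at 4 °C with 10% biotinylated, detergent-solubilized Sf9 membrane reagent. Cells were enriched on streptavidin microbeads and then FACS-sorted, with low and high (top ~1%) gates set on anti-HA fluorescence for expression and streptavidin fluorescence for reagent binding. Each polyreactivity label reflects the gate a clone came from. Genes were amplified by colony PCR, sequenced by MiSeq 2 × 250 and filtered by CDR length.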

Row | Sequence | polyreactivity (PSR sort gate)
1 | QVQLVESVGGLVQAGGSLRLSCAASGFTFRRYAMGWYRQAPGKERELVAAISYSGGITYYADSVKGRFTISRDNAKNTVYLQMNSLKPEDTAVYYCAADYFAPYKTYEYWGQGTQVTVSS | high polyreactivity
2 | QVQLVESGGGLVQAGGSLRLSCAASGSTFLVYAMGWYRQAPGKERELVAVIRWRDGSTYYADSVKGRFTISRDNAKNTVYLQMNSLKPEDTAVYYCAAVYWGEEYEYWGQGTQVTVSS | low polyreactivity
3 | QDQLVESGGVLVQAGGSLRLSCAASGNIFAVYAMGWYRQAPGKERELVAAITTGTNTYADSVKGRFTISRDNAKNTVYLQMNSLKTEDTAVYYCAARSYRPLDYWGQGTQVTVSS | low polyreactivity
4 | QVQLVESGGGLVQAGGSLRLSCAASGFTFRHYTMGWYRQAPGKERELVAAISSSGVTTYYADSVKGRFTISRDNAKNTVYLQMISLKPEDTAVYYCADRPYYYYVDYDYWGLGTQVTVSS | high polyreactivity
5 | QVQLVESGGGLVQAGGSLRLSCAASGITSGTYAMGWYRQAPGKERELVAAISSSGGRTYYADSVKGRFTISRDNAKNTVYLQMTSLKPEDTAVSYCAAETDTTYAFYWGQGTQVNVSS | high polyreactivity
6 | QVQLVESGGGLVQAGGSLRLSCAPSGSIFHYYAMGWYRQAPGKERELVAAISWSGGRTNYADSVKGRFTISSDNAKNTVYLQMNSLKPEDTAVYYCAAGNSFSDRGHRVYFQYYYWGQGTQVTVSS | high polyreactivity
7 | QVQVVESGGGLVQAGGSLGLSCAASGSTFTRNAMGWYRQAPGKERELVAAITSSGGSTYYADSVKGRFTISRDNAKNTVYLLMNSLKPEDTAVYYCAAYVRPSYFGWMDYWGQGTQVTVSS | low polyreactivity
8 | QVQLVESGGGLVQAGGSLRLSCAASGRTFAYNDMGWYRQAPGKERELGAAISWSDGTTYYADSVKGRFTISRDNAKNTVYLQMYSLKPEDTAVYYCNADDYLTSIYRYDYWGQGTQVTVSS | low polyreactivity
9 | QVQLVESGGGLVQAGGSLRLSCAASGFIFTEYAMGWYRQAPGKERELVAAISRSDDGTHYADSVKGRFTISRDYAKNTVYLPMNSLKPEDTAVYDCAAYRDYQYDYWGQGTQVTVSS | low polyreactivity
10 | QVQLVESGGGLVQAGGSLRLSCAASGITSTYYAMGWYRQAPGKERELVAAISVSGGSTYYADSVKGRFTISRDNAKNTVYLQMNSLKPEDTAVYYCTADSYHTYYYWYDYWGQGTQVTVSS | low polyreactivity
11 | QVQLVESGGGLVQAGGSLRLSCAASGSIFDYNGMGWYRQAPGKERELVATITLSTARTYYADSVKGRFTISRDNAKNTVYLQMNSLKPEDTAVYYCAATRLTPYIYGGKYNYWGQGTQVTVSS | high polyreactivity
12 | QVQLVESGGGIVQARGSLRLSCAASGRIFAPYAMGWYRQAPGKERELVAAIRISGDSTYYADSVKGRFTISRDNAKNTVYLQMNSLKPHDTAVYYCAAEYYILHWFGYAGYPAYNYWGQGTQVTVSS | high polyreactivity
13 | QVQLVESGGGLVQAGGSLRLSCAASGSIFRYYVMGWYRHAPGKERELVAAISGGSTYYADSVKGRFTISRDNAKNTVYLQMNSLKPEDTAVYYCAARGKRRSGGENYAYGYWGQGTQVTVSS | high polyreactivity
14 | QVQLVESGGGLVQAGGSLRLSCAASGLIFAGYSMGWYRLAPGKERELVAAITWRGGRTYADSVKGRFTISRDNAKNTVYLQMNSLKPEDTAVYYCAVRRWGTSFVEDDYWGQGTQVTVSS | low polyreactivity
15 | QVQLVESGGGLVQAGGSLRLSCAASGFIFVPYAMGWDRQAPGNERELVAAITWSGAATYYADSVQGRFTISRDNAKNTVYLQLNSLKPEDTAVYYCAAENWLPQTGGYYWYDSWGQGTQVTVSS | high polyreactivity
16 | QAQLQESGGSLVQAGGGLRLSCAASGYISVGSVMGWYRQAPSKERELVASIDQGANTNYADSVNGRFTISRDNAKNKESLQMNSLKPEDTAVYYCATETTYIVIYWGQGTQVTVSS | low polyreactivity
17 | QVQLVESGGGLVQAGGSLRLSCAASGYTFSHYAMGWYRQAPGTERELVAGITWSGGSTYYADSVKGRFTISRDNAKNTVYLQMNSLKPEDTSVYYCAAKYYWYYSYSGIPLFDYWGQGTQVTVSS | low polyreactivity
18 | QVQLVESGGGLVQAGGSLRLSCAASGSTFTPYAMGCYRQAPAKERELVAAINGGGTRTYYADSVKGRFTISRDHAKNTVFLQMNSLKPVDTAVYYCAARTSTSRSYPYNYWGQGTQVTGSS | high polyreactivity
19 | QVQLVESGGGLVQAGGSLRLSCAASGSIFGPYAMGWYRQAPGKERELVAAITWTGGRTYYADSVKGRFTISRDNAKNTVYLQMNSLKPVDTAVYDCAADYSPSTWYLYYTLYYYWGEGTQVTVSS | low polyreactivity
20 | QVQLVESGGGLVQAGGSLRLSCAASGLTFGRNAMGWYRQAPWKERELVAAISRSGGRTSYADSVKGRFTISRDNAKNTVYLQMNSLKPEDTAVYYCAARSDVYTHDYWGQGTQVTVSS | high polyreactivity
21 | QVQLVESGGGLVQAGGSLRLSCAASGFIFPNNAMGWYRQAPGKERELVARISYGGGDTHYADSVKGRFTISRDNAKNTVYLERNSLKPEDTAVYYCAVKDGQDDYWGQGTQVTVSS | low polyreactivity

Row | Sequence | polyreactivity (PSR sort gate)
22 | QVQLVESGGGLVQAGGSLRLSCAASGRTFIYYDKGWYRQAPGKERDLVAAIRQRGDNTYYADSVKGSFTISRDNAKNTVYLKMKSLKPDDTAVYFCAAVNYLSYRYGYSWSYPGGGYWGQGTQVTVSS | high polyreactivity
23 | QVQLVESGGRLVQAGGSLRLSCAASGLIIDVNTMGWYRQAPGKDRELVAAITGSGGRTYYADSVKGRFTISRDNAKNTVYLQMNSLKPEDSAVYYCNADTSYVGFDFWGQGTQVTVSS | low polyreactivity
24 | QVQLVESGGGLVQAGGSLRLSCAASGSTFSRYAMGWYRQAPGKERELVAAISWGGNTYYADSVKGRFTISRDNAKNTVYLQMNSLKPEDTAVYYCNRYTKLYNTMDYWGQGTQVTVSS | high polyreactivity
25 | QLQLVESRGGLVQSGGSLRLSCAASGRIFWRYAMGWYRQAPGNERELVAAISGRSGSTYYADSVKGRFTISRDNAKNTVYLLMNSLKAEDTAVYYCAAKYGTLRYDYWGQGTQVTVSS | high polyreactivity
26 | QVQLVESGGGLVQAGGSLRLSCAASGRTFPGYGMGWYRQAPGKERELVAVITSNGGITYYADSVKGRFTISRDNAKNTVYLQMNSLKPEDTAVYYCAAQNVWFYGFWRDYWGQGTQVTVSS | low polyreactivity
27 | QVQLVESGGGLVQAGGSLRLSCAASGRIFKYYVMGWYRQAPGKERELVATISSGSGTNYADSVKGRFTISRDNAKNTVYLQMNSLKPEDTAVYYCAARWTPRVRGYNYWGQGTLVTVSS | high polyreactivity
28 | QVQLVESGGGLVQAGGSLRLSCAASGLTFRRYDMGWYSQAPGKERELVAAITGGGSTYYADSVKGRFTISRDNAKNTVYLQMNSLKPEDTAGYYCAAGTWYWSYAYDYWGQGTQVTVSS | high polyreactivity
29 | QVQLGESGGGLVQAGGSLRLTCAASGITFAYYVMGWYRKAPGKERELVAASTRSGDFTSYADSVKGRFTISRDNAKNTVYFQMNSLKPEDTAVYYCNARRGYQSRRYNYWGQGTQVTVSS | high polyreactivity
30 | QVQLVESGGGLVQAGGSLRLSCAASGSTFTFYAMGWYRQAPGKERELVATISSSGGSTYYADSVKGRFTISRDNAKNTVYLQMNSLKPEDTAVYYCTATTAPRDGKWQGGMDYWGQGTQVTVSS | low polyreactivity
31 | QVQLVESGGGLVQAGGSLRLSCAASGSTFVWYAMGWYRQAPGKEREFVATISWSDGSTYYADSVKGRFTISRDNAKNTVYLQMNSLKPEDTAVYYCASDVDRFFTYKYDYWGQGTQVTVSS | low polyreactivity
32 | QVQVVESGGGFVQAGGSLRLSCAASGRTFAVYAMGWYTQAPGKEREFVATISVSDGSTYYADTVKGRFTISRDNAKNTVYLQMNSLKPEDTAVYYCAAQRWTVKYNYWGQGTQVTVSS | high polyreactivity
33 | QVQLVESGLGLVQAGGSLRLSCAASGSTFSNNAMGWYRQAPGKERELVASITRSGGSTYYADTVKGRFTISRDNAKNTVYLQMNSLKPEDTAVYYCNADGYYDYDYGEWGQGTQVTGSS | low polyreactivity
34 | QVQLEESGGGLVQAGGSLRLTCAGSGSIFDGNSMGWDRQAPGKEMELVASISWSGGTTYYADSVKGRFTISRDNATNTVYLQMNSLIPEDTAVYYCNKAGGYRRYSFWSGDYWAGLDFLGQGTQVTVSS | low polyreactivity
35 | QVQLVESGGGLVQAGGSLRLSCAASGSILWENAMGWYRQAPGKERELVATISVSGGGTYYADSVKGRFTISRDNAKNTVYLQMNSLKPEDTAVYYCNARYGNESQGWEDYWGQGTQVTVSS | low polyreactivity
36 | QVQLVESGGGLVQAGGSLRLSCAASGFTFYKYVMGWYRQAPGKERELVAAITTSGGSTYFADSVKGRFTISRDNAKNSVYLEMNSLKPEDTAVYYCNARSLHTSEGDYWGQGSQVTVSS | low polyreactivity
37 | QVQLVESGGGLVQAGGSLRLSCAASGSTFSGYVMGWYRQAPGKERELVAAITGRGGNTYYADSVKGRFTISRDNGKNTVYLQMNSLKPEDTAVYYCAAARRSYQYGYWGQGTQVTVSS | high polyreactivity
38 | QVQLVESGVGLVQAGGSLRLSCAASGSTFDDYAMGWYRQAPGKERELVAAINKTGGSTNYADSVKGRFTISRDNAKNTVYLQMNSLKPEDNAVYYCAADGSNYSASVAAFPYRVDYWGQGTQVTVSS | low polyreactivity
39 | QVQLVESGGGLVQAGGSLRLSCAASGRIFVRNAMGWYRQAPGKERELVAGISKRGSRTYYADSVKGRFTISRDNPKNTVYLQMNSLKPEDTAVYYCAVRSYIASYRDARIRFYYWGQGTQVTVSS | high polyreactivity
40 | QVQLVESGGGLVQAGGSLRLSSAASGRTFGFYAMGCYRQAHGKERELVATISSSGGSTYYADSVKGRFTISRDNAKNTVYLQMNRLTPEDTAVYYCAKVVSVWRSHYIGDYWGQGSQVTVSS | low polyreactivity
41 | QVQLVESGGGLVQAGGSLRLSCAASGSTFDSNDMGWSRQAPGKERELVAAITWSGGSTYYADSVKGRFTISRDNAKNTVYLQMNSLKPEDTAVYYCAATSGRAFKYDYWGQGTQVTVSS | high polyreactivity
